Test results from patent US20100260765A1 (AstraZeneca / MedImmune, published 2010).

B1: 33C3 (antibody, V domains shown)
VH: QVQLVESGGGLVKPGESLRLSCAASGFTFSDYYMSWIRQAPGKGLEWVSYISHGGSTIYYADSVKGRFTISRDNAKNSLYLQMNSLRVEDTAVYFCARDDFWSGYYFNWFDPWGQGALVTVSS
VL: DIQMTQYPLSLSASVGDRVTITCRASQSISSFLNWYHQKPGKAPKLLIYGTSSLQSGVPSRFSGSGSGTDFTLTISSLQPEDFATYYCQQTYSIPLTFGGGTNVEIK
notes: Purified fully human monoclonal antibody from XenoMouse hybridoma (IgG2 or IgG4 strains); also called MAb 33C3
B2: 27D10 (antibody, V domains shown)
VH: QLQLQESGPGLVKPSETLSLTCTVSGGSISSRSDYWGWIRQPPGKGLEWIGTIYYSGSTFYNPSLKSRVTISVDTSKNQFSLKLSSVTAADTAVYYCARQQLVLYYFDYWGQGTLVTVSS
VL: not shown
notes: Purified fully human monoclonal antibody from XenoMouse hybridoma (IgG2 or IgG4 strains); also called MAb 27D10
B3: 24B3 (antibody, V domains shown)
VH: EVQLVESGGGLVKPGGSLRLSCAASGFTFSTYSMNWVRQAPGKGLEWVSFISGRSSYIYYADSVKGRFTISRDNAKNSLYLQMNSLRAEDTAVYYCSKDDWFEELWGQGTLVTVSS
VL: DIQMTQSPSSLSASVGDRVTITCRASQGIRSDLGWYQQKPGKAPKRLIYATSSLQSGVPSRFSGSGSGTEFTLTISSLQPEDFATYYCLQHNRYPWTFGQGTKVEIK
notes: Purified fully human monoclonal antibody from XenoMouse hybridoma (IgG2 or IgG4 strains); also called MAb 24B3

Assays:
[1] = molecular target: human KDR on cells (human, UniProt P35968 20-1356); assay: cell-based or functional assay
Chain of human KDR on cells (P35968 20-1356): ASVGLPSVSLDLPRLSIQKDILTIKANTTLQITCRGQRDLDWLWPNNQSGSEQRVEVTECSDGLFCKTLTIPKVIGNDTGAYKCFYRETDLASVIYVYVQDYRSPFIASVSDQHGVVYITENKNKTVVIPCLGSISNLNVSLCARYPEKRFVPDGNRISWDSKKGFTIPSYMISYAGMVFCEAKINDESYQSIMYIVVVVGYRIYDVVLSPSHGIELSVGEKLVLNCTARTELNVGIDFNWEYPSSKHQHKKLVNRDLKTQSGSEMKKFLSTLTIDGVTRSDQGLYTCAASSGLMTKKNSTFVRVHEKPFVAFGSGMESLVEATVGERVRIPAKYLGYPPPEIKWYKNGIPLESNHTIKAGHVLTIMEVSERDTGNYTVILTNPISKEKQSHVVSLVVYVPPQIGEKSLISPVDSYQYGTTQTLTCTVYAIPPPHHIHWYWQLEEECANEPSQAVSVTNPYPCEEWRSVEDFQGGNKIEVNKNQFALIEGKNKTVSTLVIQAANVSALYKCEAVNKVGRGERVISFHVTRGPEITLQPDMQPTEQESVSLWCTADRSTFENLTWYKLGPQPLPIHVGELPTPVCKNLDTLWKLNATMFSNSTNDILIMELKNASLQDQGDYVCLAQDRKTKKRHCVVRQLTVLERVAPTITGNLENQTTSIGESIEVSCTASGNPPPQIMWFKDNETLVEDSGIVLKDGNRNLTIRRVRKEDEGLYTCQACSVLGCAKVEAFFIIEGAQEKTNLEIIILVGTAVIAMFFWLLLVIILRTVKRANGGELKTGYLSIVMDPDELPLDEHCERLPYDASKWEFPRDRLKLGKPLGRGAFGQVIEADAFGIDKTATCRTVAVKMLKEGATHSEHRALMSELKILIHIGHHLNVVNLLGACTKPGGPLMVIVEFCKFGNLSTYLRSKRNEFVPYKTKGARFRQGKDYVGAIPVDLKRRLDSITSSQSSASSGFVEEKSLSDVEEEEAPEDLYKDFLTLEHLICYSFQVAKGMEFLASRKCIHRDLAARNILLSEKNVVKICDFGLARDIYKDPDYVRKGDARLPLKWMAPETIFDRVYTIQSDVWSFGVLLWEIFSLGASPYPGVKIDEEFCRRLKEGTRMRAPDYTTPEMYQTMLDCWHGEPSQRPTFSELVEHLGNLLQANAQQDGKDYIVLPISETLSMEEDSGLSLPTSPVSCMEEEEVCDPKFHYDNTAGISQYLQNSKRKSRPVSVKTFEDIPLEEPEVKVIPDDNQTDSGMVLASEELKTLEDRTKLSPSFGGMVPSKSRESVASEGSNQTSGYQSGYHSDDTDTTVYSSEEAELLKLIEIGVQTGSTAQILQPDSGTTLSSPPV

[2] = molecular target: T1, KDR (antigen used as analyte in the Biacore assay) (UniProt P35968 20-764, limits assumed); assay: SPR, Biacore 2000; antibody amine-coupled on CM4 chip, KDR as analyte; global 1:1 fit; 23 C
T1 construct: also called the antigen KDR
T1 sequence (P35968 20-764 limits assumed): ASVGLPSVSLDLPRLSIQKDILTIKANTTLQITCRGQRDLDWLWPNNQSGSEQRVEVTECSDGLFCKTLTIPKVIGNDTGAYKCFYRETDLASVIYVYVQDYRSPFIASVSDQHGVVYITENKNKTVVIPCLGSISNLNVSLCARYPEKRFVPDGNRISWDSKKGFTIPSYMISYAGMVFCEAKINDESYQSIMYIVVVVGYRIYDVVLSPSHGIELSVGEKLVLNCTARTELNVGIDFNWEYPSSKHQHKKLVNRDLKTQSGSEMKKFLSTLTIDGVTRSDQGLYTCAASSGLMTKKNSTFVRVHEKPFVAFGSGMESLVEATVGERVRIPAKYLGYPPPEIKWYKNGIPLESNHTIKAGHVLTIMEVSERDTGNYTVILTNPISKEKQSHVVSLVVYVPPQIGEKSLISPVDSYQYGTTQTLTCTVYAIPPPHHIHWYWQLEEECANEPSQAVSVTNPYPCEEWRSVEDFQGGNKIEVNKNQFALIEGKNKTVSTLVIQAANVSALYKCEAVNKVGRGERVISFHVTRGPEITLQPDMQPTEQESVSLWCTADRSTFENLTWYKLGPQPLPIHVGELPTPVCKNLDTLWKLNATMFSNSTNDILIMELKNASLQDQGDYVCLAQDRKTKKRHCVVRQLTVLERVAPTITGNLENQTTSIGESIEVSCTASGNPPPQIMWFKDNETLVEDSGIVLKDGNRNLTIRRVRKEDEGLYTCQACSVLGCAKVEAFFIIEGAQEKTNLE
Experimental: Each purified anti-KDR antibody was immobilized on a CM4 sensor chip within a Biacore 2000 using standard amine coupling. Immobilization levels were kept between 250 and 350 RU. The concentration of KDR was determined by UV-VIS spectroscopy using a molar absorptivity at 280 nm of 110, 440 M⁻¹ cm⁻¹, which was calculated from the sequence of the protein using a method developed by Pace et al. (G. R. Grimsley and C. N. Pace (2003) in Current Protocols in Protein Science (John Wiley & Sons, Inc.), 3.1.1-3.1.9). The antigen KDR was diluted to a starting concentration of 52 nM and tested in a 3-fold dilution series in triplicate. The running buffer contained HBS-P with 0.1 mg/ml BSA and binding responses were collected at 23 degrees C. […] The response data were globally fit with a simple 1:1 interaction model. The number shown in parentheses is the standard error in the last significant figure.

Binder | % Inhibition (Average) of VEGF-C-mediated KDR activity, antibody 1 nM [1] | % Inhibition (Average) of VEGF-C-mediated KDR activity, antibody 10 nM [1] | % Inhibition (Average) of VEGF-C-mediated KDR activity, antibody 100 nM [1] | % Inhibition (N = 1) of VEGF-C-mediated KDR activity, antibody 1 nM [1] | % Inhibition (N = 1) of VEGF-C-mediated KDR activity, antibody 10 nM [1] | % Inhibition (N = 1) of VEGF-C-mediated KDR activity, antibody 100 nM [1] | % Inhibition (N = 2) of VEGF-C-mediated KDR activity, antibody 1 nM [1] | % Inhibition (N = 2) of VEGF-C-mediated KDR activity, antibody 10 nM [1] | % Inhibition (N = 2) of VEGF-C-mediated KDR activity, antibody 100 nM [1] | Kd [2] | koff [2] | kon [2]
B1 | 66% | 88% | 85% | 71% | 87% | 84% | 61% | 89% | 86% | 0.91 nM | 9.3e-05 s⁻¹ | 102000 M⁻¹ s⁻¹
B2 | 51% | 76% | 80% | 52% | 73% | 76% | 50% | 79% | 84% | 4.91 nM | 0.000254 s⁻¹ | 51800 M⁻¹ s⁻¹
B3 | 30% | 62% | 71% | 26% | 61% | 67% | 34% | 62% | 75% | 1.09 nM | 0.000191 s⁻¹ | 175000 M⁻¹ s⁻¹
